Test results as given in patent US20200262918A1 (Stanford University, published 2020).

Biological target: human SIRPα (human, UniProt P78324 31-373)
Experiment: Biacore (SPR), format not stated

Sequence of human SIRPα (P78324 31-504): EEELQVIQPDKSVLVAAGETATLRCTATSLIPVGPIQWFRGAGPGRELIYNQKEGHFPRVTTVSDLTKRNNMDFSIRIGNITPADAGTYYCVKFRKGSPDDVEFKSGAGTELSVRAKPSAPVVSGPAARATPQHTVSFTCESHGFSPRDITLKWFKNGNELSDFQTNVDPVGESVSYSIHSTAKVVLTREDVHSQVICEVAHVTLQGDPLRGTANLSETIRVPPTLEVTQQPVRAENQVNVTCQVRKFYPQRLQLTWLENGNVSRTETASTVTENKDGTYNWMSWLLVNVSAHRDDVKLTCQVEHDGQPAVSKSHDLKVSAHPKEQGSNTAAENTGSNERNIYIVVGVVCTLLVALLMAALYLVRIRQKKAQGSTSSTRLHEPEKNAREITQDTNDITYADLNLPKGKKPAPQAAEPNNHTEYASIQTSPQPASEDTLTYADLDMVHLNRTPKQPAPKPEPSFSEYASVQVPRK

Kd [nM] | Binder
1.54 | Humanized KWAR23 anti-SIRPα antibody (antibody, V domains shown, The phagocytosis assays used HuKwar-G1, a human IgG1 with N297A; also called HuKwar-G1; HuKWar-G1) VH: EVQLVQSGAEVKKPGATVKISCKVSGFNIKDYYIHWVQQAPGKGLEWIGRIDPEDGETKYAPKFQDRATITADTSTDTAYMELSSLRSEDTAVYYCARWGAYWGQGTLVTVSS VL: QIVLTQSPPTLSLSPGERVTLTCSASSSVSSSYLYWYQQKPGQAPKLWIYSTSNLASGVPARFSGSGSGTSYTLTISSLQPEDFAVYFCHQWSSYPRTFGAGTKLEIK
1.18 | Mouse KWAR23 anti-SIRPα antibody (antibody, V domains shown, also called mouse antibody; mKWAR) VH: EVQLQQSGAELVKPGASVKLSCTASGFNIKDYYIHWVQQRTEQGLEWIGRIDPEDGETKYAPKFQDKATITADTSSNTAYLHLSSLTSEDTAVYYCARWGAYWGQGTLVTVSS VL: QIVLTQSPAIMSASPGEKVTLTCSASSSVSSSYLYWYQQKPGSSPKLWIYSTSNLASGVPARFSGSGSGTSYSLTISSMEAEDAASYFCHQWSSYPRTFGAGTKLELK
